Our source for the relative interaction by immunoprecipitation (% of FTH1-WT) values is PMC11076521.

The target in this experiment is MYC-tagged FTL wild type, P02792. Description: co-IP; HeLa-FTH1 KO cells; anti-MYC IP of MYC-FTH1/FTL, immunoblot; 50 mM Tris-HCl pH 7.5, 150 mM NaCl, 0.5% Nonidet P40, 1 mM DTT; quantified relative to FTH1-WT, normalized to immunoprecipitated FTH1/FTL and NCOA4 input. The note with it: remark: other sources report otherwise. In general terms: In western blotting, separated proteins are transferred to a membrane and probed.
Chain of MYC-tagged FTL wild type, P02792 (P02792 whole entry): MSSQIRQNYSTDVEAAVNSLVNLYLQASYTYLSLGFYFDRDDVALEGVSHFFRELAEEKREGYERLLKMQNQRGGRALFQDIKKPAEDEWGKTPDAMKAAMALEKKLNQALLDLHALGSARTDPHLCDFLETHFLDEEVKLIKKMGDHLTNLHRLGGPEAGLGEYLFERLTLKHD

B1: C-terminally HA-FLAG-tagged NCOA4, Q13772 1-614 (natural protein)
chain: MNTFQDQSGSSSNREPLLRCSDARRDLELAIGGVLRAEQQIKDNLREVKAQIHSCISRHLECLRSREVWLYEQVDLIYQLKEETLQQQAQQLYSLLGQFNCLTHQLECTQNKDLANQVSVCLERLGSLTLKPEDSTVLLFEADTITLRQTITTFGSLKTIQIPEHLMAHASSANIGPFLEKRGCISMPEQKSASGIVAVPFSEWLLGSKPASGYQAPYIPSTDPQDWLTQKQTLENSQTSSRACNFFNNVGGNLKGLENWLLKSEKSSYQKCNSHSTTSSFSIEMEKVGDQELPDQDEMDLSDWLVTPQESHKLRKPENGSRETSEKFKLLFQSYNVNDWLVKTDSCTNCQGNQPKGVEIENLGNLKCLNDHLEAKKPLSTPSMVTEDWLVQNHQDPCKVEEVCRANEPCTSFAECVCDENCEKEALYKWLLKKEGKDKNGMPVEPKPEPEKHKDSLNMWLCPRKEVIEQTKAPKAMTPSRIADSFQVIKNSPLSEWLIRPPYKEGSPKEVPGTEDRAGKQKFKSPMNTSWCSFNTADWVLPGKKMGNLSQLSSGEDKWLLRKKAQEVLLNSPLQEEHNFPPDHYGLPAVCDLFACMQLKVDKEKWLYRTPLQM
As to B1, the relative interaction by immunoprecipitation (% of FTH1-WT) was 14%.
